Target: T1, phosphorylated peptide (PRHLSNVS(pS)TGSIDMVD) of Example 10 (human)
T1 sequence (peptide, phosphoserine (pS) at peptide position 9): PRHLSNVSSTGSIDMVD
Experiment: ELISA, pS413 peptide coated at 1 ug/ml, antibody titrated, goat anti-human-HRP, ABTS, OD405 (Example 10)

Row | EC50 (read off the curve) [µg/mL] | Binder
1 | 0.01 | Humanized × [MAPT_H] mAb (Ta1505-VL46_G34T/VH11) IgG4 S228P/Kappa (CX) (antibody, V domains shown) VH: EVQLVESGGGLVQPGGSLRLSCAASGFTFSSFALNWVRQAPGKGLEWVGHIRSKTNNYATFYAASVKDRFTVSRDDSQNTAYLQMNSLKTEDTATYYCVRRGPRDSWFGYWGQGTLVTVSS VL: DIVMTQSPLSLPVTLGEPASISCRSSQSIVHSNTNTYLEWYLQKPGQSPQLLIYTVSNRFSGVPDRFSGSGSGTDFTLKISRVEAEDLGVYYCFQGSHLPLTFGGGTKVEIKR
2 | 0.02 | Humanized × [MAPT_H] mAb (Ta1505-VL46_N33Q/VH11) IgG4 S228P/Kappa (CX) (antibody, V domains shown) VH: EVQLVESGGGLVQPGGSLRLSCAASGFTFSSFALNWVRQAPGKGLEWVGHIRSKTNNYATFYAASVKDRFTVSRDDSQNTAYLQMNSLKTEDTATYYCVRRGPRDSWFGYWGQGTLVTVSS VL: DIVMTQSPLSLPVTLGEPASISCRSSQSIVHSQGNTYLEWYLQKPGQSPQLLIYTVSNRFSGVPDRFSGSGSGTDFTLKISRVEAEDLGVYYCFQGSHLPLTFGGGTKVEIKR
3 | 0.006 | Humanized × [MAPT_H] mAb (Ta1505-VL46 S28N/VH11) IgG4 S228P/Kappa (CX) (antibody, V domains shown) VH: EVQLVESGGGLVQPGGSLRLSCAASGFTFSSFALNWVRQAPGKGLEWVGHIRSKTNNYATFYAASVKDRFTVSRDDSQNTAYLQMNSLKTEDTATYYCVRRGPRDSWFGYWGQGTLVTVSS VL: DIVMTQSPLSLPVTLGEPASISCRSSQNIVHSNGNTYLEWYLQKPGQSPQLLIYTVSNRFSGVPDRFSGSGSGTDFTLKISRVEAEDLGVYYCFQGSHLPLTFGGGTKVEIKR
4 | 0.02 | Humanized × [MAPT_H] mAb (Ta1505-VL46_N33Q_G34A/VH11) IgG4 S228P/Kappa (CX) (antibody, V domains shown) VH: EVQLVESGGGLVQPGGSLRLSCAASGFTFSSFALNWVRQAPGKGLEWVGHIRSKTNNYATFYAASVKDRFTVSRDDSQNTAYLQMNSLKTEDTATYYCVRRGPRDSWFGYWGQGTLVTVSS VL: DIVMTQSPLSLPVTLGEPASISCRSSQSIVHSQANTYLEWYLQKPGQSPQLLIYTVSNRFSGVPDRFSGSGSGTDFTLKISRVEAEDLGVYYCFQGSHLPLTFGGGTKVEIKR
5 | 0.01 | Humanized × [MAPT_H] mAb (Ta1505-VL46_N33T/VH11) IgG4 S228P/Kappa (CX) (antibody, V domains shown) VH: EVQLVESGGGLVQPGGSLRLSCAASGFTFSSFALNWVRQAPGKGLEWVGHIRSKTNNYATFYAASVKDRFTVSRDDSQNTAYLQMNSLKTEDTATYYCVRRGPRDSWFGYWGQGTLVTVSS VL: DIVMTQSPLSLPVTLGEPASISCRSSQSIVHSTGNTYLEWYLQKPGQSPQLLIYTVSNRFSGVPDRFSGSGSGTDFTLKISRVEAEDLGVYYCFQGSHLPLTFGGGTKVEIKR
6 | 0.02 | Humanized × [MAPT_H] mAb (Ta1505-VL46_N33S/VH11) IgG4 S228P/Kappa (CX) (antibody, V domains shown) VH: EVQLVESGGGLVQPGGSLRLSCAASGFTFSSFALNWVRQAPGKGLEWVGHIRSKTNNYATFYAASVKDRFTVSRDDSQNTAYLQMNSLKTEDTATYYCVRRGPRDSWFGYWGQGTLVTVSS VL: DIVMTQSPLSLPVTLGEPASISCRSSQSIVHSSGNTYLEWYLQKPGQSPQLLIYTVSNRFSGVPDRFSGSGSGTDFTLKISRVEAEDLGVYYCFQGSHLPLTFGGGTKVEIKR
